Assay results published in the domain aggregation screens of Martell et al. (2025).

Experiment: soluble fraction after stress (log2 fold change); higher = more stays soluble; pooled small domains, quantitative proteomics
Conditions: stress: 75 degC
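Also: 20 min heating vs room temperature control held 20 min.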

Going from “HMPFTLDGVNEGSRNDQAARMSGYLISKNLNMDFIKFFMQSWNRQNSPPLSQREINSVVDNVKRTHDRKNK” to “HMPGKVSDAGATAKDNRLFLEAVFWRVRTGSPWRDLPPAFGHWNSQFRRFRRWAKAGVFESLFNA”, the “soluble fraction (log2)” value rises from -1.88 to 0.182.

Going from “HMPGRKKLAIIYKNDYIGAFNLADSYRDSYEVSMYAFPKKVGKLLNRLELQGFNAYVIYDKDNEENNFNTI” to “HMPGSGELSRRLELAIRDRTAVRVTAAAAGQERSFTLLPVAITSGRLRATDEQAGVQRTLPLSAIVAVEA”, the “soluble fraction (log2)” value rises from -1.82 to -0.179.

Compared with “HMPGTEAQDGEVLLDALRRIHPDSSTGTLRRMLTQGRVQVDGTTVHAAKAELTSGQHVEVVAR”, “HMPIDIEPVLQWIRDNSIDGIGPARSMYHSAAAAAGLPSYSSLQLRKWTWPLLLDAAGVQRR” is lower in “soluble fraction (log2)” value: 0.136 for the first, -0.427 for the second.

Compared with “HMPIRMLQVQKTNTGYLNVRDTPSVSGALIGKVFPGDMLSSTEERDGWFLVAVPQGGTGWVSGDYVKTTS”, “HMPKAPHETLSRREMEVLLLLSEGVTLTRIGDTIHVSVKTVSTYRARILQKLDLQSNAELTRYVLQHKL” is lower in “soluble fraction (log2)” value: -0.191 for the first, -5.8 for the second.

Going from “HMPKHDWDAFAGAIARRVHDHGMPVSQGELVRDMMDWFAGRKDFPPPDERTVRRKVSAIWRELNG” to “HMPKIPRLTLTETAGIMGVSQRALALAIQQGMYSWAQALPGRNKKRPIYFINAITFAKAQGIDLEEYK”, the “soluble fraction (log2)” value rises from -1.38 to -1.13.

First: HMPKKLIWERTTSKLQLYITQDRYELKTPLMTIPFTSKSKMMVYLQQRYHLDMQEYRQIYDAG
Second: HMPKMDGLTVMEQVNQDHFVNKRPYFIVITAVGQEKITEDAFNKGANYYVMKPFNNNMLLERIKSVRK
The “soluble fraction (log2)” value of the first is lower: -2.28 for the first, 0.642 for the second.

Going from “HMPKYLNIYHELAQRIQEGALPAETKLPSETELMQEFEASRGTVRKAIDALQEKGFVRKHQGKGVFVLSQ” to “HMPLDYNELRSISPKAARQAILQILAANKGNVSATAKLLGVSRKTVYKAMHKKASGNLDDTSRAPK”, the “soluble fraction (log2)” value falls from -0.00712 to -1.74.

Going from “HMPLITAIELDSISARSFQFNTQSGSTYFIEGSTDLKSWDVIAEVKATDSTTTYEDHRKIYHEAYFYRVRL” to “HMPLITDIKIQVKNTEKVSLFVDGKYSFSLTISQLAEHKILKTNQEISAKQVAEFKKLSNLTNLYIRIVG”, the “soluble fraction (log2)” value rises from -1.84 to -0.305.

First: HMPLITLSAEIQSEQIGQRLDQTLAELFPEYSRSRLKTWIEADLVKLNNQIVNIPREKVLGGEHVEITVDI
Second: HMPLNRFLNLPHEDKERVLLIAKKQFSTHGYDAMSLNLLLKELDISKGQFYYWFEDKADLFFTVL
The “soluble fraction (log2)” value of the first is lower: -1.09 for the first, -0.11 for the second.

First: HMPLRPNQRQFIHLMVYQGLDRNEAYAQANNKVLTEENYESIRTAAAKTFYTPHVNNYYHALMEEIRDRE
Second: HMPLSVRQRMSDILSNLKTSDFTNFADLFDPKEGRTGITVTFIAILELLREFLIEVVQSDHYQPLHVRAAS
The “soluble fraction (log2)” value of the first is lower: -0.471 for the first, -0.213 for the second.

Going from “HMPLTAASLQTYLRGVDYPASKQDLIAHARKSDAPEDAITVLEQYSEQTYRSAADVSAEFGS” to “HMPLTEMAVRKHLSAELAQKGYTIDPRALEILLQRTNTNLTAIANELPKLLLVAEDKQITVNEVSAM”, the “soluble fraction (log2)” value falls from 0.109 to -0.319.

Going from “HMPLTKKLETLFSLFPKYEKELKKKGVTRIHVWANYKEEYPDGIGRSQFIHYYSFWKKQVSP” to “HMPLVIIRGIEGVFSSEEKAEAIRKVTDALVSVKGENVRGFAWVVFEEVKSGDWGIGGESITAEKVIMSL”, the “soluble fraction (log2)” value rises from -0.154 to 0.158.

Compared with “HMPMDDETWDALSLFAYKRYARENGWPLMIGAEALRDTFASYFPLDSSTWQDRSSHYLTYQDGIYTRT”, “HMPMDYFELFNIPRNANRETIKKILDQEYEKYRARVVSPVLEIRHEAELMLVEISKAKQVLLG” is lower in “soluble fraction (log2)” value: -0.247 for the first, -1.08 for the second.

Going from “HMPMHPEDLKKLVSIEMPFGKHKGRIIADLPGNYLNWFAREGFPPGEIGRLLQLMQEIDHNGLSDLLKPLR” to “HMPMNISDIIKQAREELGMTQEDLAERLEVSRQAVSKWELGASVPSPENLRLLEELLGVELPAP”, the “soluble fraction (log2)” value rises from -0.521 to -0.198.

First: HMPNFDPSYILDFGDVIQLQLVGQKNQILEIPILRDGSVNLPDIGKIFLSGMSLEEATKIIKDTYSA
Second: HMPNGEAYQRFTYENDILEGRFEEWDSLGTDIVKGDYTAGVRHKKWLYYDSEGRRDKFVFLDMDSI
The “soluble fraction (log2)” value of the first is lower: -0.931 for the first, 0.116 for the second.

Compared with “HMPNNNDIVLDRVSFGYHEKEVLHGIDMTIREGTVNALVGPSGSGKSTIAKLIAGLWDVDGGSISF”, “HMPNPSAGRVHIDALLPFDRVEVTDMQGSLLLDHSFSPRRAVDLDLNARGTLLYTLWSKGHLLGKGRVVR” is lower in “soluble fraction (log2)” value: 0.555 for the first, -0.606 for the second.

Compared with “HMPNQLLELVEMEIRDLLNEYEFPGDDTPIIQGSALKALEDPMGPWGDKIMDLMDAVDSYIPDPE”, “HMPPAIKTLMFMIQNKSLLKSPKQLAVVQQQLKKIKGVRDVLILLEEGKVMLKVNKHETIHEASIIRLLGG” is lower in “soluble fraction (log2)” value: -0.686 for the first, -1.87 for the second.

“HMPPALTELLSVRTNASGTIDYLLPDRSAGLRVENGSKYSGMVPDSIYRLVAIYEIKDAKEPSAYIYTI” and “HMPPFDDILAEYYEPLYRHVRRMVVSHDDAKDVMQEAMLRIFQGLDGLKDPSAVRTWVWRIATNEALRH” are within 0.2 log units of each other in “soluble fraction (log2)” value: -0.0495 for the first, -0.0914 for the second.

Compared with “HMPPPVDLDKKGYKLRGIVLEDGRSAAFVFVPAEKRVVVLRENASGPVRLLETGMRRIRLQTPEGAGYLEL”, “HMPPQPATQNTKAQVMQLAREKELMAGEGRGANVEALEKFANEHGISLRGMTEEQAEQLVKLLMEYTP” is higher in “soluble fraction (log2)” value: -1.36 for the first, -0.239 for the second.

First: HMPPRFVPATGADLRRWLDVSGLTAEAAGDLLGVSGARFRQWLSRYRSAPLPDPVRALLVALLRP
Second: HMPPSRFNELSMWFQEQLTEAGLKVDSGALKMLIEWLGQDQARLPSIIEVLVSTYGTKKKLTVDEIEPFL
The “soluble fraction (log2)” value of the first is higher: -0.00746 for the first, -0.384 for the second.

Compared with “HMPPTSADGIEKYLASGMIRGVGPVYAKKLVSAFGDKVFDIIEAAPHQLQEVEGIGRVRAASILAAWAEQ”, “HMPQLEDLEPLDSSGMVRRDGPHLVLAVGRHRGRHLEEVRDSDPSYLHWLLSPKGIEDIQAKEDIKTYLNL” is higher in “soluble fraction (log2)” value: -0.549 for the first, -0.0235 for the second.

Going from “HMPQLVGDVDGDGRVSVTDGEWIRASYGALPWYAGWRAAADLDGSRKIDVVDLELLRTKMGN” to “HMPRIYSITINPEKIRTVIGPGGKVIKDITAKTGTKIEIDDSGKVDIFSPDEEHARMAVEIINTLTEE”, the “soluble fraction (log2)” value rises from -0.334 to 0.0671.

First: HMPRKYFPFYFTFRETAQTMPPRLRAVFYEAIIEYGTTGKEPTLPKSIAGYWPLVKPTLDSAKAHYDAG
Second: HMPRNEIQRSVLNELVQWIKNNLAKKLTMQALSRFSGYSEWHLFRLFRHYFNMSPMAYIRQQRMQ
The “soluble fraction (log2)” value of the first is lower: -3.62 for the first, -0.366 for the second.

Compared with “HMPRPRIHSVVRGDTLYGISRQYGVAMSKLASLNGLKSPYRIMVGRSLRLPSAIEAERDRTAREVVQ”, “HMPRVLSSYTLTLRHQPTAEAVALVRTLLSPAGSVEVKEDGRTLVVRDELAALSRIVGALRSFDH” is higher in “soluble fraction (log2)” value: -1.53 for the first, -0.851 for the second.

Compared with “HMPRVSIEKIKKVVELLKHNPDYTYSKIGNIVGIGRKTVSGINNGKLYTDLVEELGINEFPI”, “HMPRYQQIARQLKTAIEHGELKPGARLPSSRTWSQELGISRSTVESAYTELVAQGWLERRGQAGTFVSAQL” is lower in “soluble fraction (log2)” value: -0.459 for the first, -1.04 for the second.
